Source: patent US20190352420A1 (Boehringer Ingelheim, published 2019)
Substitutions are numbered along the chain they refer to.

T1: mouse CD73 (mouse, UniProt Q61503 29-551, limits assumed)
T1 construct: also called murine CD73
T1 sequence (looked up): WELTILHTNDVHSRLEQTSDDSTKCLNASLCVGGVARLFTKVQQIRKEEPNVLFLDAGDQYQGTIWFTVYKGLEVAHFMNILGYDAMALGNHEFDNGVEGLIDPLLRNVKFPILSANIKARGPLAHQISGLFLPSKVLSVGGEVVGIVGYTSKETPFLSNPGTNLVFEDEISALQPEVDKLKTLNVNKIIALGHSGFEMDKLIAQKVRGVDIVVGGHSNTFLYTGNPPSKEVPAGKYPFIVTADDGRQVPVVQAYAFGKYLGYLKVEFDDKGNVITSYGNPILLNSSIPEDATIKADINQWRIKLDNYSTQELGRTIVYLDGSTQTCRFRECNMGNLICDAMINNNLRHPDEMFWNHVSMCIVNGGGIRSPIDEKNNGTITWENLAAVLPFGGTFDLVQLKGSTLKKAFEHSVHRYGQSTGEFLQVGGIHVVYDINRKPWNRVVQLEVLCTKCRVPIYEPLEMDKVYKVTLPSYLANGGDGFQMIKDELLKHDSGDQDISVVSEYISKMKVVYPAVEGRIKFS

T2: recombinant human CD73 protein (human, UniProt P21589 27-549, limits assumed)
T2 sequence (looked up): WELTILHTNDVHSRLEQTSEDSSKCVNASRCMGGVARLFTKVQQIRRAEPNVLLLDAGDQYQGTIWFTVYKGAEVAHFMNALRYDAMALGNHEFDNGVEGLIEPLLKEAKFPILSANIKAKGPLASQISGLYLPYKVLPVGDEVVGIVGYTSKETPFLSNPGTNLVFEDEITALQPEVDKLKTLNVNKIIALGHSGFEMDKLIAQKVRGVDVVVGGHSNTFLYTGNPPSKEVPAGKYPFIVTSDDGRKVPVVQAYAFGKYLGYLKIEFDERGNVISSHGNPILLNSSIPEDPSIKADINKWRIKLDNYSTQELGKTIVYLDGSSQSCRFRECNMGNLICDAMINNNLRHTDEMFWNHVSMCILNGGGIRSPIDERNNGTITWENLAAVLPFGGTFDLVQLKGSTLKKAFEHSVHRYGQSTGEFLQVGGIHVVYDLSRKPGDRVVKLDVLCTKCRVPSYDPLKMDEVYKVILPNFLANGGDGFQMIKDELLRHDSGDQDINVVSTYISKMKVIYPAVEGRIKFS

T3: cell-bound CD73 (human, UniProt P21589 27-549)
T3 sequence (looked up): T2 sequence (looked up)

T4: non-cell-bound CD73 (human, UniProt P21589 27-549, limits assumed)
T4 sequence (looked up): T2 sequence (looked up)

T5: human CD73-His (human, UniProt P21589 27-549)
T5 construct: extracellular domain; The SPR analyte is only called 'human CD73-His' (non-covalent dimeric antigen); also called HuCD73 His tagged; HuCD73his20170303
T5 sequence: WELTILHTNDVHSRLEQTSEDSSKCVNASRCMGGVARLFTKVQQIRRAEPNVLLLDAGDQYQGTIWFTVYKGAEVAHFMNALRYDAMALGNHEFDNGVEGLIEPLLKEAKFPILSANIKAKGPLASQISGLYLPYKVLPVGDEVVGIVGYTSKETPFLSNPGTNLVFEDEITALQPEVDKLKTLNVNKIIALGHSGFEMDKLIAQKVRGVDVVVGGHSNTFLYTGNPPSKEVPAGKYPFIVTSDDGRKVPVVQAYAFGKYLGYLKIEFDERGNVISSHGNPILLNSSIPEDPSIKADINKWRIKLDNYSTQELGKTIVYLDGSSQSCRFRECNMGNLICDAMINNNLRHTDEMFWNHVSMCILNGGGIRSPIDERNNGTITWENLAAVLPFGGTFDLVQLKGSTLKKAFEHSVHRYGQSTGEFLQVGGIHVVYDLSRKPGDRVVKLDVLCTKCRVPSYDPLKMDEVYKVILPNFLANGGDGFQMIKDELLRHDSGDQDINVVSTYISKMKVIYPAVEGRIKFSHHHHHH

B1: C6 (antibody, human IgG1, kappa, L234A L235A, V domains shown)
VH: QVQLVQSGAEVKKPGDSVKVSCKASGYTFTTYWMHWVRQAPGQGLEWMGAIYPGNSDTTYNQKFKGKVTMTRDTSTSTVYMKLSSLRSEDTAVYYCARLLDYAMDYWGQGTLVTVSS
VL: DIQMTQSPSSLSASVGDRVTITCRASQDIRNYLNWHQQKPGKAPKLLIWYTSRLHSGVPSRFSGSGSGTDYTLTISSLQPEDFATYFCQQGNTLPWTFGQGTKLEIKR
notes: Humanized monoclonal antibody; also called anti-CD73 antibody C6
B2: C4 (antibody, human IgG1, kappa, L234A L235A, V domains shown)
VH: B1 VH with N55L
VL: B1 VL with N31S, N92E
notes: Humanized monoclonal antibody; also called C04; inventive anti-CD73 antibody C4

Tests used:
[1] = molecular target: T1, mouse CD73; assay: SPR, mouse CD73 compared with human CD73 (reference)
[2] = molecular target: T2, recombinant human CD73 protein; assay: cell-based or functional assay
[3] = molecular target: T3, cell-bound CD73; assay: cell-based or functional assay
[4] = molecular target: T4, non-cell-bound CD73; assay: cell-based or functional assay
[5] = molecular target: T5, human CD73-His; assay: SPR (ProteOn XPR36), antibody captured on Protein A/G, dimeric human CD73-His as analyte, avidity format, 1:1 Langmuir fit
Description: For the avidity format, the experiment was performed on a Bio-Rad ProteOn XPR36 instrument. Antibodies were captured via Protein A/G and the non-covalent dimeric antigens were flowed over the captured surface. The running buffer for this experiment and all dilutions were prepared in PBS-T-EDTA. The GLM sensor chip was normalized and pre-conditioned as per the manufacturer's recommendations. The sensor chip was activated with an equal mixture of EDC/s-NHS in the horizontal direction for 300 s at a flow rate of 30 μL/min and immobilized with recombinant Protein A/G (50 μg/ml in 10 mM acetate pH 4.5) in the horizontal direction for 300 s at a flow rate of 30 μL/min resulting in about 5000 RU of Protein A/G on the surface. The sensor chip was deactivated with 1M ethanolamine-HCl in the horizontal direction for 300 s at a flow rate of 30 μL/min. The sensor chip was regenerated with 18 s of 0.85% phosphoric acid at a flow rate of 100 μL/min 2 times horizontally and 2 times vertically.
About 300 RU of antibody was captured on the Protein A/G surface vertically for 60 s at a flow rate of 30 μL/min. The capture surface was stabilized by injecting PBS-T-EDTA for 60 s at a flowrate of 100 μL/min horizontally. The analyte (human CD73-His) was injected horizontally over the captured antibody for 600 s at a flow rate of 30 μL/min with a dissociation of 1200 s. The concentrations of human CD73-His were 0 nM, 3.125 nM, 6.25 nM, 12.5 nM, 25 nM and 50 nM. The surface was regenerated by injecting 0.85% phosphoric acid for 18 s at a flow rate of 100 μL/min one time horizontally and one time vertically.
The interspot (interactions with sensor surface) and blank (PBS-T-EDTA or 0 nM analyte) were subtracted from the raw data.

[6] = molecular target: T3, cell-bound CD73; assay: cell-based or functional assay; remark: listed apart in the source
[7] = molecular target: T3, cell-bound CD73; assay: cell-based or functional assay; remark: listed apart in the source
[8] = molecular target: T3, cell-bound CD73; assay: cell-based or functional assay; remark: listed apart in the source
[9] = molecular target: T3, cell-bound CD73; assay: cell-based or functional assay; remark: listed apart in the source

Binder | fold higher binding to human CD73 than to mouse CD73 [1] | IC90 of inhibition of CD73 enzymatic function (luciferase-based assay) [2] | CD73 surface reduction [%] on Colo201 cells, 24 h, flow cytometry [3] | % of max. adenosine inhibition, Colo-201 culture supernatant [4] | Kd [5] | CD8 T cell proliferation [% of control], Donor A, 1 nM antibody [6] | CD8 T cell proliferation [% of control], Donor B, 1 nM antibody [6] | CD8 T cell proliferation [% of control], Donor C, 1 nM antibody [6] | CD8 T cell proliferation [% of control], Donor D, 1 nM antibody [6] | CD8 T cell proliferation [% of control], Donor E, 1 nM antibody [6] | CD8 T cell proliferation [% of control], Donor F, 1 nM antibody [6] | IFNγ release [fold change over control], Donor A, 1 nM antibody [7] | IFNγ release [fold change over control], Donor B, 1 nM antibody [7] | IFNγ release [fold change over control], Donor C, 1 nM antibody [7] | IFNγ release [fold change over control], Donor D, 1 nM antibody [7] | IFNγ release [fold change over control], Donor E, 1 nM antibody [7] | IFNγ release [fold change over control], Donor F, 1 nM antibody [7] | % of max. adenosine inhibition, washed Colo-201 cells [8] | Max. adenosine inhibition [%] in Colo201 cells [9]
B1 | 58 fold | 0.24 nM | 19% | 78% | 0.096 nM | 102% | 65.4% | 88.3% | 99.6% | 100% | 91.1% | 24.3 fold | 12.9 fold | 55.5 fold | 25.8 fold | 14 fold | 10.3 fold | 81% | 88%
B2 | 120 fold | 0.24 nM | 15% | 81% | 0.074 nM | 104% | 70.3% | 111% | 98.5% | 100% | 92.6% | 20.2 fold | 8.7 fold | 35.2 fold | 13.7 fold | 14.1 fold | 7.1 fold | 82% | 88%
